Assay results reported in paper PMC10140047, “BICD2 phosphorylation regulates dynein function and centrosome separation in G2 and M” (Nature Communications, 2023).

B2: TwinStrep-BICD2 S102D (natural protein, mouse, UniProt Q921C5 1-820, looked up)
chain: MSAPSEEEEYARLVMEAQPEWLRAEVKRLSHELAETTREKIQAAEYGLAVLEEKHQLKLQFEELEVDYEAIRSEMEQLKEAFGQAHTNHKKVAADGESREEDLIQESASKEQYYVRKVLELQTELKQLRNVLTNTQSENERLTSVAQELKEINQNVEIQRGRLRDDIKEYKFREARLLQDYSELEEENISLQKQVSVLRQNQVEFEGLKHEIKRLEEETEYLNSQLEDAIRLKEISERQLEEALETLKTEREQKNNLRKELSHYMSINDSFYTSHLQVSLDGLKFSDDTVTAEPNNDAEALVNGFEHSGLVKSSLDNKTSTPRKDGLAPPSPSLVSDLLSELHISEIQKLKQQLVQMEREKVGLLATLQDTQKQLEQARGTLSEQHEKVNRLTENLSALRRLQAGKERQTSLDNEKDRDSHEDGDYYEVDINGPEILACKYHVAVAEAGELREQLKALRSTHEAREAQHAEEKGRYEAEGQALTEKISLLEKASHQDRELLAHLEKELKKVSDVAGETQGSLNVAQDELVTFSEELANLYHHVCMCNNETPNRVMLDYYREGQGKAGRTSPEGRGRRSPVLLPKGLLATEVGRADGGTGDNSPSPSSSLPSPLSDPRREPMNIYNLIAIIRDQIKHLQAAVDRTTELSRQRIASQELGPAVDKDKEALMEEILKLKSLLSTKREQITTLRTVLKANKQTAEVALANLKSKYENEKAMVTETMMKLRNELKALKEDAATFSSLRAMFATRCDEYITQLDEMQRQLAAAEDEKKTLNSLLRMAIQQKLALTQRLELLELDHEQTRRGRSKAASKAKPASPSL
notes: BICD2, mouse, with S102D (pLIB-TwinStrep-3C-BICD2 S102D); A 3C site lies between tag and protein; no cleavage is described; also called full-length BICD2 S102D; S102D TwinStrep-BICD2; source: insect cells (baculovirus), purified (StrepTactinXT, Superdex 200); not shown: TwinStrep, N-terminal, kept
B3: GST-Rab6A (natural protein, human, UniProt P20340 1-208, looked up)
chain: MSTGGDFGNPLRKFKLVFLGEQSVGKTSLITRFMYDSFDNTYQATIGIDFLSKTMYLEDRTVRLQLWDTAGQERFRSLIPSYIRDSTVAVVVYDITNVNSFQQTTKWIDDVRTERGSDVIIMLVGNKTDLADKRQVSIEEGERKAKELNVMFIETSAKAGYNVKQLFRRVAAALPGMESTQDRSREDMIDIKLEKPQEQPVSEGGCSC
notes: Preloaded with either GDP or GTPγS before the pull-down

Assays:
[1] = biological target: B3; test: pull-down; GST-Rab6 on GSH agarose beads preloaded with GTPγS, incubated 90 min at RT with purified TwinStrep-BICD2 in Binding Buffer (50 mM Tris pH 7.4, 125 mM NaCl, 5 mM EDTA, 0.1% NP40); blot with anti-BICD2; details: both partners purified
[2] = biological target: the molecule itself; test: SEC-MALS; purified TwinStrep-BICD2 WT and S102D; predicted MW of ~190 kDa
[3] = biological target: B2; test: pull-down; GST-Rab6 on GSH agarose beads preloaded with GTPγS, incubated 90 min at RT with purified TwinStrep-BICD2 in Binding Buffer (50 mM Tris pH 7.4, 125 mM NaCl, 5 mM EDTA, 0.1% NP40); blot with anti-BICD2; details: both partners purified

B1: TwinStrep-BICD2 WT (natural protein, mouse, UniProt Q921C5 1-820, looked up)
chain: MSAPSEEEEYARLVMEAQPEWLRAEVKRLSHELAETTREKIQAAEYGLAVLEEKHQLKLQFEELEVDYEAIRSEMEQLKEAFGQAHTNHKKVAADGESREESLIQESASKEQYYVRKVLELQTELKQLRNVLTNTQSENERLTSVAQELKEINQNVEIQRGRLRDDIKEYKFREARLLQDYSELEEENISLQKQVSVLRQNQVEFEGLKHEIKRLEEETEYLNSQLEDAIRLKEISERQLEEALETLKTEREQKNNLRKELSHYMSINDSFYTSHLQVSLDGLKFSDDTVTAEPNNDAEALVNGFEHSGLVKSSLDNKTSTPRKDGLAPPSPSLVSDLLSELHISEIQKLKQQLVQMEREKVGLLATLQDTQKQLEQARGTLSEQHEKVNRLTENLSALRRLQAGKERQTSLDNEKDRDSHEDGDYYEVDINGPEILACKYHVAVAEAGELREQLKALRSTHEAREAQHAEEKGRYEAEGQALTEKISLLEKASHQDRELLAHLEKELKKVSDVAGETQGSLNVAQDELVTFSEELANLYHHVCMCNNETPNRVMLDYYREGQGKAGRTSPEGRGRRSPVLLPKGLLATEVGRADGGTGDNSPSPSSSLPSPLSDPRREPMNIYNLIAIIRDQIKHLQAAVDRTTELSRQRIASQELGPAVDKDKEALMEEILKLKSLLSTKREQITTLRTVLKANKQTAEVALANLKSKYENEKAMVTETMMKLRNELKALKEDAATFSSLRAMFATRCDEYITQLDEMQRQLAAAEDEKKTLNSLLRMAIQQKLALTQRLELLELDHEQTRRGRSKAASKAKPASPSL
notes: BICD2, mouse cDNA amplified from the pEGFP constructs into pLIB-TwinStrep-3C-BICD2; A 3C site lies between tag and protein; no cleavage is described; also called full-length BICD2 WT; wild type TwinStrep-BICD2; source: insect cells (baculovirus), purified (StrepTactinXT, Superdex 200); not shown: TwinStrep, N-terminal, kept
For B1, the “fold binding against Rab6 preloaded with GDP” value [1] was ~5 fold.

In the case of B2, the “fold binding against Rab6 preloaded with GDP” value [1] is reported as ~5 fold and the “stoichiometry N” value [2] is reported as 2.

B3: binds [3].
